Usually Kd stands for the concentration at which binding is half-saturated. For orientation: EC50 means the concentration needed to bring the measured effect to its halfway point. As a reminder, the koff is a measure of how fast the partners let go of each other. Higher therefore signals a short-lived complex. The kon is the rate constant with which the complex forms. A low value points to slower complex formation.

The target of assay [1] is T1, cynoNectin4-mFc (cyno, UniProt A0A2K5WES1 32-349).
T1 construct: Immobilized on the SPR chip; also called cyanoNectin4; not shown: mFc (mouse Fc)
T1 sequence: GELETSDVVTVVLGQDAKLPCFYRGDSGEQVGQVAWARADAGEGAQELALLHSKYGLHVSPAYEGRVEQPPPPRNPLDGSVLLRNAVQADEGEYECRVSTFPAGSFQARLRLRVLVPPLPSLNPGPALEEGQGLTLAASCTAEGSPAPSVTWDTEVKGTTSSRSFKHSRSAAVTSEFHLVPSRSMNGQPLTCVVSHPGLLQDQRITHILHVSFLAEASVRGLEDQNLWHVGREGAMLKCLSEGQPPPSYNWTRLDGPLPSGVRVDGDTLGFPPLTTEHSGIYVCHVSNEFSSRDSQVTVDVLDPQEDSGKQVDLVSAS
In words: SPR, cynoNectin4-mFc immobilized, pH 6.0. As for the experimental part:
(§1) Binding kinetics of anti-Nectin4 antibodies were measured by surface plasmon resonance using a SPR2/4 instrument (Sierra Sensors, Hamburg, Germany) and flat amine sensor chips. The SPR sensor contained four flow cells (FC1-FC4), each of which was addressed individually or in groups. huNectin4-His was immobilized in FC2, and cynoNectin4-mFc in FC4. No protein was immobilized in FC1 and FC3 which were used as control surfaces for FC2 and FC4, respectively.
(§2) All injections were done at a flow rate of 25 μL/min at 25° C. The sensor surface was activated with 1-ethyl-3-(3-dimethylaminopropyl)-carbodiimide (EDC) and N-hydroxysuccinimide (NHS) (200 mM/50 mM) for 480 seconds. HuNectin4-His (2 μg/mL in 10 mM NaAc, pH4.5) was injected for 480s and the surface was inactivated by injecting 1M ethanolamine-HCl for 480s. CynoNectin4 was immobilized using the same conditions as described for huNectin4-His, except that the cynoNectin4 was diluted into 10 mM NaAc buffer having pH 5.0. The control surface was activated and deactivated using the same conditions, but without injecting protein. PBST buffer (PBS pH 7.4 with 0.05% TWEEN20™) was used as running buffer for the surface preparation. The running solution was switched to PBST with 30 mM sodium bicarbonate with the pH adjusted as indicated in the figures before the analyte injections. The instrument was equilibrated with the running solution for one hour before the first analyte injection.
(§3) The off-rate was measured for 360s. The chip surface was regenerated after each cycle of interaction analysis by injecting 6 μL of 10 mM glycine (pH 2.0). Flow cells 1 and 3 without immobilized protein were used as control surfaces for reference subtraction.

Assay [2] deals with T1, cynoNectin4-mFc. In words: SPR, cynoNectin4-mFc immobilized, pH 7.4. As to the method: as §1, §2, §3
For orientation: In SPR one partner is held on a chip, and binding of the other changes the refractive index at the surface.

The target of assay [3] is T2, cyno Nectin-4 on cells (cyno, UniProt A0A2K5WES1 32-510).
T2 construct: whole, on cells; also called HEK293 cells expressing cyno Nectin-4; cyno Nectin-4 cells
T2 sequence: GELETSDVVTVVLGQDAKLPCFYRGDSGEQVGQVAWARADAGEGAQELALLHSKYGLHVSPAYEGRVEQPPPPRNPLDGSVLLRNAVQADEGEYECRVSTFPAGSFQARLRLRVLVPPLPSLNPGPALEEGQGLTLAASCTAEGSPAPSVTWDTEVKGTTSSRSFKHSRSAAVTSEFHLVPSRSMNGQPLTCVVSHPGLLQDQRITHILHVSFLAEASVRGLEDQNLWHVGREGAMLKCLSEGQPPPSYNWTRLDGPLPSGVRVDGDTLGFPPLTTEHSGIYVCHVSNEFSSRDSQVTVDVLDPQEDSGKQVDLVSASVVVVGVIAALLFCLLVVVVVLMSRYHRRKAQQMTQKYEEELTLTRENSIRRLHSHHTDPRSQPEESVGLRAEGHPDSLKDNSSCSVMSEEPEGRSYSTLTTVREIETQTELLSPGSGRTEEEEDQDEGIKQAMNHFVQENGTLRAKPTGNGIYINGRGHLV
The assay can be described thus: FACS, HEK293 cells expressing cyno Nectin-4.

For assay [4], the target named is T3, recombinant human Nectin4 antigen (human, UniProt Q96NY8 32-349).
T3 construct: construct not described
T3 sequence (looked up): T1 sequence with A39V, V230I
The assay can be described thus: ELISA, coated antigen, PSB pH 6.0. As to the method:
1) Coat ELISA plates with 100 μL of 1 μg/mL recombinant human Nectin4 antigen or cynoNectin4 antigen in carbonate-bicarbonate coating buffer. […] 2) Cover plates with sealing film and incubate overnight at 4° C. [0444] 3) Decant plates and tap out residual liquid on a stack of paper towels. [0445] 4) Wash wells twice by dispensing 200 μL of pH 6.0 or pH 7.4 ELISA incubation buffer to the wells and completely aspirate the contents. [0446] 5) Add 200 μL of pH 6.0 or pH 7.4 ELISA incubation buffer to the wells. Cover with sealing film and place the plate onto a plate shaker set to 50 rpm for 60 minutes at room temperature. [0447] 6) Decant plates and tap out residual liquid on a stack of paper towels. […] 7) Serially dilute test articles in 3-fold dilutions starting at 3000 ng/mL in pH 6.0 or pH 7.4 ELISA incubation buffer. […] 8) Add 100 μL/well of diluted test articles to the plates [0450] 9) Cover with sealing film and place the plates onto a plate shaker set to 50 rpm for 60 minutes at room temperature. [0451] 10) Decant plates and tap out residual liquid on a stack of paper towels. [0452] 11) Wash wells three times by dispensing 200 μL of pH 6.0 or pH 7.4 ELISA wash buffer to the wells and completely aspirate the contents. […] 12) Dilute the HRP secondary antibody at 1:2500 in pH 6.0 or pH 7.4 ELISA incubation buffer. [0454] […] 14) Cover with sealing film and place the plates onto a plate shaker set to 50 rpm for 60 minutes at room temperature. […] 15) Decant plates and tap out residual liquid on a stack of paper towels. […] 16) Wash wells three times by dispensing 200 μL of pH 6.0 or pH 7.4 ELISA wash buffer to the wells and completely aspirate the contents. [0458] 17) Dispense 50 μL per well of the TMB substrate solution into all wells of the plates.
Background: In an ELISA, binding on a coated surface is turned into a signal by an enzyme label.

Residue numbers refer to the chain shown, from its start.

B1: BAP-143-wildtype (antibody, V domains shown)
VH: EVQLVESGGGLVQPGGSLRLSCAASGFTFSSYNMNWVRQAPGKGLEWVSYISSSSSTIYYADSVKGRFTISRDNAKNSLSLQMNSLRDEDTAVYYCARAYYYGMDVWGQGTTVTVSS
VL: DIQMTQSPSSVSASVGDRVTITCRASQGISGWLAWYQQKPGKAPKFLIYAASTLQSGVPSRFSGSGSGTDFTLTISSLQPEDFATYYCQQANSFPPTFGGGTKVEIK
notes: 150 kDa used in SPR; also called BAP143-00-00; benchmark (BM)
For B1, the Kd is 1.06 nM in assay [1] and 0.333 nM in assay [2]. For the same molecule, the “Ratio (pH 7.4/6.0) of EC50” value in assay [3] is 1.7. Further, the EC50 in assay [4] came to 0.0316 µg/mL.

B2: BAP-143-00-01 (antibody, V domains shown)
VH: B1 VH
VL: B1 VL with L33E
notes: Used as a conjugate with a linker payload (CAB ADC)
Turning to B2, in assay [1], the Kd was 3.04 nM, the koff was 0.00248 s⁻¹ and the kon amounted to 817000 M⁻¹ s⁻¹. In assay [2], this molecule registered a Kd of 11.1 nM, a koff of 0.00162 s⁻¹ and a kon of 146000 M⁻¹ s⁻¹. In addition, in assay [3], the “Ratio (pH 7.4/6.0) of EC50” value stood at 4.1. Moreover, the EC50 in assay [4] was found to be 0.0313 µg/mL.

B3: BAP-143-00-03 (antibody, V domains shown)
VH: B1 VH
VL: B1 VL with P96D
notes: as for B2
Consider B3, for which, in assay [1], the Kd was 2.33 nM, the koff was determined as 0.00235 s⁻¹ and the kon came out at 1.01e+06 M⁻¹ s⁻¹. Besides, in assay [2], the Kd came to 3.85 nM, the koff stood at 0.000826 s⁻¹ and the kon came out at 215000 M⁻¹ s⁻¹. The “Ratio (pH 7.4/6.0) of EC50” value in assay [3] worked out at 3.6. For the same molecule, the EC50 in assay [4] turned out to be 0.0344 µg/mL.

B4: BAP-143-00-06 (antibody, V domains shown)
VH: B1 VH with M104D
VL: B1 VL
notes: as for B2
Regarding B4, in assay [1], the Kd came out at 0.56 nM, the dissociation rate constant (koff) stood at 0.00141 s⁻¹ and the kon is 2.52e+06 M⁻¹ s⁻¹. In assay [2], this molecule showed a Kd of 0.4 nM, a koff of 0.000335 s⁻¹ and a kon of 839000 M⁻¹ s⁻¹. Further, the “Ratio (pH 7.4/6.0) of EC50” value in assay [3] came out at 3.2. Also, the EC50 in assay [4] amounted to 0.0247 µg/mL.

B5: BAP-143-00-05 (antibody, V domains shown)
VH: B1 VH with R98E
VL: B1 VL
notes: as for B2
As to B5, in assay [1], binding was put at a Kd of 7.02 nM, the koff stood at 0.00449 s⁻¹ and the kon was found to be 639000 M⁻¹ s⁻¹. Further, in assay [2], the affinity, expressed as Kd, was 4.89 nM; the koff came to 0.00157 s⁻¹; the kon amounted to 322000 M⁻¹ s⁻¹. In addition, the “Ratio (pH 7.4/6.0) of EC50” value in assay [3] was found to be 2.5. In addition, the EC50 in assay [4] was found to be 0.0441 µg/mL.

B6: BAP-143-00-04 (antibody, V domains shown)
VH: B1 VH with M34D
VL: B1 VL
notes: as for B2
In assay [1], B6 registered a Kd of 2.08 nM, a koff of 0.00377 s⁻¹ and a kon of 1.82e+06 M⁻¹ s⁻¹. Besides, in assay [2], the Kd worked out at 1.33 nM, the koff came to 0.00112 s⁻¹ and the kon is 840000 M⁻¹ s⁻¹. Besides, the “Ratio (pH 7.4/6.0) of EC50” value in assay [3] amounted to 2.1. Besides, the 50% effective concentration (EC50) in assay [4] is 0.0258 µg/mL.

B7: BAP-143-00-02 (antibody, V domains shown)
VH: B1 VH
VL: B1 VL with F94E
notes: as for B2
In assay [1], B7 returned a dissociation constant (Kd) of 5.46 nM, a koff of 0.00242 s⁻¹ and an on-rate (kon) of 443000 M⁻¹ s⁻¹. In assay [2], the affinity, expressed as Kd, was 5.86 nM; the koff was found to be 0.00195 s⁻¹; the kon is 334000 M⁻¹ s⁻¹. For the same molecule, in assay [3], the “Ratio (pH 7.4/6.0) of EC50” value turned out to be 2.3. In assay [4], the concentration for a half-maximal effect (EC50) is 0.0876 µg/mL.

Values taken from patent US20230235054A1 (BIOATLA, published 2023).
